Reference: the nanobody polyreactivity screen of Harvey et al. (2022)

Test: yeast display, Sf9 membrane polyspecificity reagent, FACS + sequencing; frameworks hold sequencing errors
How it was run: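 A nanobody's polyreactivity label depends on the gate it was sorted from. Yeast display cells were stained with 10% biotinylated, detergent-solubilized Sf9 membrane reagent for 1 hour at 4 °C, enriched on streptavidin microbeads and sorted by FACS. The low and high (top ~1%) gates were set on anti-HA fluorescence for expression and streptavidin fluorescence for reagent binding.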

Sequence | polyreactivity (PSR sort gate)
QVQLVESGGGLVQAGGSLRLSCAASGRIFGVNAMGWYRQAPGKERELVAAIDWSDGSTYYADSVKGRFTISRDNAKNTVYLQMNSLKPEDTAVYYCATDYSYGDYYDDEFPSDDFDYWGQGTQVTVSS | low polyreactivity
QVQLVESGGGLVQAGGSLRLTCAASARTFFGYAMGWYRQAHGKARELVARIRWSTTYYADSVKGRFTISRDNAKNTVYLQMNSLKPEDTAVYYCNAVYYYVGYRYDYWGQGTQVTVSS | high polyreactivity
QVQLVESGGGLVQAGGSLRLSCAASGRILGRNAMGWYRQAPGKEREFVAGISYSGTSTYYADSVKGRFTISRDNAKNTVYLQMNSLKPEDTAVYYCAVYTGRQPRVSGKYYYWGQGTQVTVSS | high polyreactivity
QVQLVESGGGLVQAGGSLSLSCAASGSTSVLNAMGWYRHAPGKERELVAALTSGVDSTYYADSVKGRFTISRDNAKNTVYLQMNSVKREDTAVYYCATVVDALDNSYKRVYLFDYWGQGTQVTVSS | low polyreactivity
QVQLVESGGGLVQAGGSLRLSCADSGYIFYYNAMGWYRQAPGKERDLVATITSGGSTYYADSLKGRFTISRDNAKNTVYLQMNSLKPEDTAVYYCAAPSQSIRYTYIRSYYWGQGTQVTVSS | low polyreactivity
QVQLVESGGGLVQAGGRLRLSCAASGRIFFRNTMGWYRQEPGKERQLVAAISGSGGSKYYADSVKGRFTISRDNAKNTVYLQMNSLKPEDTAVYYCAKRWLYPISYDYWGQGTQVTVSS | high polyreactivity
QFQLVESGGGLVQAGGSLRLSCAASGSIFYGYTMGWYRQEPGKERELLAAIRKSGGSTNYADSVKGRFTISRDNAKNTVYLQMNSLKPEDTAVYYCSASYYRGRGYYWGQGTQVTVSS | high polyreactivity
QVQLVESGGGLVQAGGSLRLSCAASGRIYVIYGMGWYRQAPGKERELVATISWSGSSTSYADSVKGRFTISRDNAKNTVYLQMNSLKHEDTAVYYCNAPVQSETFDYWGQGTQVTVSS | high polyreactivity
QVQLVESGGGLVQAGGSLRLSCAASGFIFRYYAMGWSRQAPGKERELVAAITSGGRTSYADSVKGRFTISRDNAKNTVYLQMNSLKPEDTAVYYCAKDSYRQRYGSMEYWGQGTQVTVSS | high polyreactivity
QVQLVESGGGLVQAGGSLRLTCAASGRIFSANAMGWYRKAPGKERELVATISTGGGRTYYADSVKGRFTISRDYAKNTVYLQMNSLKAEDTAVYYCNDTGNYARFLYYSWCQGTQVTVSS | high polyreactivity
QVQHVESGGGLVQARGSLRLSCAPSGFTFETNAMGWYRQAPGKEREFDAAISWTTTSTYFADSVKGRVTISRDNAKNTVYLQMNSLKPEDTAVYSCAVGLIREFGWDYDYWGQGTQVTVSS | low polyreactivity
QVQLVESGGGLVQAGGSLRLSCAASGRTFYINAMGWYRQAPGKERELVAGITRGGSTNYADSVKGRFTISRDNAKNTVYLQMNSLKPEDTAVYYCNAARAERWGRGSYPEFDYWGQGTQVTVSS | high polyreactivity
QVLLVESGGGLVQAGGSLRLSCAASGSIFGAYAMGWYRQAPGKVRELVAAINYGGATTYYADSVKGRYTISRDLAKNTVYLQMNSLKPQDTAVYYCAADNDTDHSSATYGYDYWGQGTQVTVSS | low polyreactivity
QVQLVESGGGLVQAGGSLRLSCAASGSIIDINALGWYRQAPRKERDLVAAISLSAGSTYYADSVKGRFSISRDNAKNTVYLQMNSLKPEDTAVYYGAAERGGRGTLRNRYDYWGQGTQVTVSS | low polyreactivity
QVQLVESGGGLVQAGGSLRLSCAASGITFWEYAMGWYRQAPGKERELVAAISRSGGSTYYADSVKGRFTISRDTAKNTVYLQMNSLKPEDTAVYYCAAYTRRPIYDYWGQGTQVTVSS | high polyreactivity
QVQLVESGGGLFQAGGRLRLICAASGRIFTTNAMGWYRQAPGKERELVPAISRSGGSTNYADSVKGRFTISRDNAKNTVYLQMNSLIPEDTAVYYCAAVPTCNSFRSSFYYWGQGTQVTVSS | high polyreactivity

Sequence | polyreactivity (PSR sort gate)
QVQLQESGGGLEQAGGSLRLSCAASGYITDIGTMGWYRQAPGKEREFVATIVVGSTTNYADSVKGRFTISRDNAKNTVYLQPESGRYRGVLLRGWLLAVGNFTYWGQGTQETVSS | low polyreactivity
QVQLVESGGGLVQAGGSLRLSCAASGSTLGYYAMGWYRQAPGKERELVAAIRYSDGNTYYADSVKGRFTISRDNAKNTVYLQMNSLKPEDTAVYYCAADGGYYGREYWGQGTQVTVSS | high polyreactivity
QVQLVESGGGLVQAGGSLRLSCAASGFNFGTYAMGWYRQAPGKERELVAAISSGGSTYYADSVKGRFTISRDNAKNTVYLQMNSLKPEDTAVYYCAKEGGTYRIFNYWGQGTQVTVSS | low polyreactivity
QVQLVESGGGLVQAGGSIRLSCAASGFTFSQYVMGWYRQAPGKERELVAAISYRGGSTYYADSVKGRFTSARDNAKNTVYLQMNSLQPEDTAVYYGAAVAYSWHNRYDYCGQGTQVTVSS | high polyreactivity
QVQLVESGVGLVQAGGSLRLSCAASGRTFSRNAMGWYRQAPGKERELVAAISRSGGSTYYADSVKGRFTISRDNAKNTVYLQMNSLKPEDTAVYYCNADVYSTYYNYNYWGQGTQVTVSS | high polyreactivity
QFQLVESGRGLVQAGGSIRLSCAASGSIFRWYAMGWSRQAPGKERELVAAISYGGGSTYYADSVKGRFTISRDNAKNTVYLQMNRLKPEDTAVYYCNRGYPSTLYDYWGQGTQVTVSS | high polyreactivity
QVQLVESGGGLVQAGGSLRLSCAASGSTFTVYAMGWYRQAPGKEREFVAAITPSGASTYYADSVKGRFTISRDNAKNTVYLQMNSLKPEDTAVYYCNARSRTGYTNRMYYWGQGTQVTVSS | high polyreactivity
QVQLVESGGGLVQAGGSLRLICAASGFIFKGYAMGWNRQAPGKERELVAAISSSGTSTYYADSVKGRFTISRDNAKNTVYLQMNSLKPEDTAVYYCAADLASYAYRYDFWGQGTQVTVSS | high polyreactivity
QVQLVESGGGLVQAGGSLRLSCAASGSIYITYAMGWYRQAPGKERELVAAIRDSGDRTYYADSVKGRFTISRDNAKNTVYLQMNSLKPEDTAVYYCNARWQEPLKYDYWGQGTQVTVSS | low polyreactivity
QVQLVESGGGLVQAGGSLRLSCAASGRIYWNTMGWYRQAPWKEREMVASISTGCGRTYYADSVKGRFTISRDNAKNTVYLQMHSLKPEDTSVYYCNAVRTVWYRYEYGYWGQGTQVTVSS | high polyreactivity
QVQLVESGGGLVQAGGSLRLSCAASGNTFYGYAMGWYRQAPGKERELVASSTLSGDSTYYADSVKGRFTISRDNAKNTVYLQMNSLKPEDTAVYYCAGVYTYPLGYYHYTYDYWGQGTQVTVSS | low polyreactivity
QDQLVESGGGLVQAGGRLRLSCAASGLIFENYAMGWYRQSPGKERDLVAAITTSGGSTYYADSVKGRFTISRDNAKNTVYLQMNSLKPEDTAVYDCAAVGVRSRYYGYDYWGQGTLVTVSS | high polyreactivity
QDQLVESGGGLVQAGGSLRLSCAASGSTFQWYAMVWYRQAPGKERELVAAINKSGGTTYYADSVKGRFTISRDNAKNTVYLQMNRLKPEDTAVYYCATDNPVVYQPGNLDYWVQGTQVTVSS | low polyreactivity
QVQLVESWGGLVQAGGSLRLSCAASGSTFRGNAMGWYRQAPGTERELVAAITRRGGSTYYADSVKGRFTISRDNAKNTVYLQMNSLKPEDPAVYYCAKVGRETEYDYWGQGTQVTVSS | high polyreactivity
QVQLVESGGGLVQAGGSLRLSCAASGRIFYGNAMGWYRQAPGKERELVAAIRRSGGSTYYAESVKGRVTISRDNAKNTVYLQMNSLKPEDTAVYYRNADAFNKISYVWYDYWGQGPQVTVSS | low polyreactivity
QVQLVESGAGLVQAGGSLRLSCAASGITFASYAMGWYRQAPGKERELVAAITWGGSRTYYADSVKGRFTISRDNAKNSVYLQMNSLKPEDTAVYYCNAHTRYGPDYSYYYWGQGSQVTVSS | high polyreactivity
